US20250115669A1, “FGFR1/KLB Targeting Agonistic Antigen-Binding Proteins and Conjugates Thereof with GLP-1R Agonistic Peptides” (SANOFI, priority 2020, published 2025)
Numbering of substitutions follows the chain as printed. Names may count otherwise.

T1: human beta-Klotho (Homo sapiens, UniProt Q86Z14)
T1 sequence (Q86Z14 1-1044): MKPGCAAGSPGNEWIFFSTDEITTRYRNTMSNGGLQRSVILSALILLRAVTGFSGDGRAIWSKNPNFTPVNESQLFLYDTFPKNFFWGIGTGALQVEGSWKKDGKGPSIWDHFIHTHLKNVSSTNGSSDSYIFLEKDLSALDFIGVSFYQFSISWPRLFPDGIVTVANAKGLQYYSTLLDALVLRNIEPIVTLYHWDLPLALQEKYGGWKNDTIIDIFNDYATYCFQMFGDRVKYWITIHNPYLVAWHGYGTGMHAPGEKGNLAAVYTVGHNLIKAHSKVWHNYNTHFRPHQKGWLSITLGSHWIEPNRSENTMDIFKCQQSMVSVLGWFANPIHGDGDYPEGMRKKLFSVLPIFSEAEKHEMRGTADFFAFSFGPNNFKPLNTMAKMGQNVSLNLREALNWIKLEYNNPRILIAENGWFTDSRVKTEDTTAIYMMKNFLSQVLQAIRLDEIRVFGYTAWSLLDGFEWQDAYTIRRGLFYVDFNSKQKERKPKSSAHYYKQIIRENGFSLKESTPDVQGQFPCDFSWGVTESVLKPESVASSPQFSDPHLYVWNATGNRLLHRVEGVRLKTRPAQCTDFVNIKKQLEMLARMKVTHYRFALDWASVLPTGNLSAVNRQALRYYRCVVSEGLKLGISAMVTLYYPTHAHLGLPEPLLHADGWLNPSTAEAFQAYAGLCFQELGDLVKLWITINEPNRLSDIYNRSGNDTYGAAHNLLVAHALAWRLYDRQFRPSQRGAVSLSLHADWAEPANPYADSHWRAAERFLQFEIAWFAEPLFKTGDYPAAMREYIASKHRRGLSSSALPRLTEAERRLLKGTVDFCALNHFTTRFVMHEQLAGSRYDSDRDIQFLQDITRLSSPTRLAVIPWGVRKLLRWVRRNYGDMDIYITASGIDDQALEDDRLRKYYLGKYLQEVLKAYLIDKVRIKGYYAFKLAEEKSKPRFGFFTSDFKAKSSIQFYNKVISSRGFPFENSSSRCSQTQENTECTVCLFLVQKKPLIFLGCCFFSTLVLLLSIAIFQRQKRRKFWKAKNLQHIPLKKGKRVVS

B1: Ab0380: IgG4 PE; 16H7 VL (Y48del, D95V, W90F, S1C, S94C); 16H7 VH (M34V, H52S, F54W, I83T, D109E) (antibody)
VH: QVTLKESGPVLVKPTETLTLTCTVSGFSLNNARVGVSWIRQPPGKALEWLASIWSNDEKSYSTSLKSRLTISKDTSKSQVVLTMTNMDPVDTATYYCARSVVTGGYYYEGMDVWGQGTTVTVSS
light: CYVLTQPPSVSVAPGQTARITCGGNNIGSESVHWYQQKPGQAPVLVVDDSDRPSGIPERFSGSNSGNTATLTISRVEAGDEADYYCQVFDGNCVHVVFGGGTKLTVLGQPKANPTVTLFPPSSEELQANKATLVCLISDFYPGAVTVAWKADGSPVKAGVETTKPSKQSNNKYAASSYLSLTPEQWKSHRSYSCQVTHEGSTVEKTVAPTECS
B2: Ab0391: IgG4 PE; 16H7 VL (Y48del, D95S, W90F, S94C, H96C); 16H7 VH (M34V, H52S, F54W, I83T, D109E) (antibody)
VH: B1 VH
light: B1 light with C1S, V94S, H95C
B3: Ab0404: IgG4 PE; 16H7 VL (Y48del, D95T, W90F); 16H7 VH (M34V, F54W, I83T, D109E) (antibody)
VH: B1 VH with S52H
light: B1 light with C1S, C93S, V94T
B4: Ab0405: IgG4 PE; 16H7 VL (Y48del, D95T, W90F); 16H7 VH (M34V, H52S, F54W, I83T, D109E) (antibody)
VH: B1 VH
light: B1 light with C1S, C93S, V94T
B5: Ab0403: IgG4 PE; 16H7 VL (Y48del, D95A, W90F, S1C, S94C); 16H7 VH (M34V, H52W, I83T, D109E) (antibody)
VH: B1 VH with S52W, W54F
light: B1 light with V94A
B6: Ab0401: IgG4 PE; 16H7 VL (Y48del, D95A, W90F); 16H7 VH (M34V, H52W, I83T, D109E) (antibody)
VH: B1 VH with S52W, W54F
light: B1 light with C1S, C93S, V94A
B7: Ab0399: IgG4 PE; 16H7 VL (Y48del, D95A, W90F, S94C, H96C); 16H7 VH (M34V, F54W, I83T, D109E) (antibody)
VH: B1 VH with S52H
light: B1 light with C1S, V94A, H95C
B8: Ab0381: IgG4 PE; 16H7 VL (Y48del, D95V, W90F, S94C, H96C); 16H7 VH (M34V, F54W, I83T, D109E) (antibody)
VH: B1 VH with S52H
light: B1 light with C1S, H95C
B9: Ab0396: IgG4 PE; 16H7 VL (Y48del, D95A, W90F); 16H7 VH (M34V, H52S, F54W, I83T, D109E) (antibody)
VH: B1 VH
light: B1 light with C1S, C93S, V94A
B10: Ab0383: IgG4 PE; 16H7 VL (Y48del, D95V, W90F); 16H7 VH (M34V, H52W, I83T, D109E) (antibody)
VH: B1 VH with S52W, W54F
light: B1 light with C1S, C93S
B11: Ab0397: IgG4 PE; 16H7 VL (Y48del, D95A, W90F, S1C, S94C); 16H7 VH (M34V, F54W, I83T, D109E) (antibody)
VH: B1 VH with S52H
light: B1 light with V94A
B12: Ab0402: IgG4 PE; 16H7 VL (Y48del, D95A, W90F, S94C, H96C); 16H7 VH (M34V, H52W, I83T, D109E) (antibody)
VH: B1 VH with S52W, W54F
light: B1 light with C1S, V94A, H95C
B13: Ab0400: IgG4 PE; 16H7 VL (Y48del, D95A, W90F, S94C, H96C); 16H7 VH (M34V, H52S, F54W, I83T, D109E) (antibody)
VH: B1 VH
light: B1 light with C1S, V94A, H95C
B14: Ab0406: IgG4 PE; 16H7 VL (Y48del, D95T, W90F, S1C, S94C); 16H7 VH (M34V, H52S, F54W, I83T, D109E) (antibody)
VH: B1 VH
light: B1 light with V94T
B15: Ab0393: IgG4 PE; 16H7 VL (Y48del, D95S, W90F, S94C, H96C); 16H7 VH (M34V, H52W, I83T, D109E) (antibody)
VH: B1 VH with S52W, W54F
light: B1 light with C1S, V94S, H95C
B16: Ab0392: IgG4 PE; 16H7 VL (Y48del, D95S, W90F); 16H7 VH (M34V, H52W, I83T, D109E) (antibody)
VH: B1 VH with S52W, W54F
light: B1 light with C1S, C93S, V94S
B17: Ab0395: IgG4 PE; 16H7 VL (Y48del, D95A, W90F); 16H7 VH (M34V, F54W, I83T, D109E) (antibody)
VH: B1 VH with S52H
light: B1 light with C1S, C93S, V94A
B18: Ab0390: IgG4 PE; 16H7 VL (Y48del, D95S, W90F, S94C, H96C); 16H7 VH (M34V, F54W, I83T, D109E) (antibody)
VH: B1 VH with S52H
light: B1 light with C1S, V94S, H95C
B19: Ab0398: IgG4 PE; 16H7 VL (Y48del, D95A, W90F, S1C, S94C); 16H7 VH (M34V, H52S, F54W, I83T, D109E) (antibody)
VH: B1 VH
light: B1 light with V94A
B20: Ab0389: IgG4 PE; 16H7 VL (Y48del, D95S, W90F, S1C, S94C); 16H7 VH (M34V, H52S, F54W, I83T, D109E) (antibody)
VH: B1 VH
light: B1 light with V94S
B21: Ab0382: IgG4 PE; 16H7 VL (Y48del, D95V, W90F, S94C, H96C); 16H7 VH (M34V, H52S, F54W, I83T, D109E) (antibody)
VH: B1 VH
light: B1 light with C1S, H95C
B22: Ab0394: IgG4 PE; 16H7 VL (Y48del, D95S, W90F, S1C, S94C); 16H7 VH (M34V, H52W, I83T, D109E) (antibody)
VH: B1 VH with S52W, W54F
light: B1 light with V94S

Target: T1, human beta-Klotho
Test: SPR off-rate screening of antibody mutants (human beta-Klotho captured by anti-His antibody)
Type: binding
Settings: mean, n=3
Experimental: Screening of antibody mutants for binding to human beta-Klotho was determined in a different SPR assay set up. Human beta-Klotho was affinity captured by an anti-His antibody (from His capture kit, GE Healthcare) that was immobilized to a series S CM5 chip (GE Healthcare) by amine reactive coupling as described above. The antibody samples were used as analytes at 50 nmol/L concentration. Association time was 240 sec and dissociation time was 300 sec. Chip surfaces were regenerated using the regeneration solution supplied with the His capture kit. The off-rates (kd) were determined using single exponential fitting in the Biacore 8K Evaluation Software version 1.1.1.7442 (GE Healthcare).

koff human KLB | Molecule
no binding | B1
no binding | B2
no binding | B3
no binding | B4
no binding | B5
no binding | B6
no binding | B7
no binding | B8
no binding | B9
no binding | B10
no binding | B11
no binding | B12
no binding | B13
no binding | B14
no binding | B15
no binding | B16
no binding | B17
no binding | B18
no binding | B19
no binding | B20
no binding | B21
no binding | B22
